Holding throughout (assay): fluorescence polarization
For one assay, the target named is T1, AHDC1 (Homo sapiens).
T1 chain: PEDTFTVTSL

For the next assay, the target named is T2, ABR (Homo sapiens).
T2 chain: RNTLYFSTDV

Another assay deals with T3, APC (Homo sapiens).
T3 chain: HSGSYLVTSV

In a further assay the target is T4, ZO2 (Homo sapiens).
T4 chain: QSARYDTEL

The target in the next assay is T5, ZNF654 (Homo sapiens).
T5 chain: SSAQPSETIL

In a further assay the target is T6, ANKS4B (Homo sapiens).
T6 chain: QPGQLVDTSL

For three molecules, Kd results are on record in paper PMC3189207 (2011).

B1: Scrib PDZ1 (protein)
chain: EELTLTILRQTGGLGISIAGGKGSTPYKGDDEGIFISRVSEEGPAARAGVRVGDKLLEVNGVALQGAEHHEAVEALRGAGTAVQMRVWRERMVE
As a reminder, the Kd is the equilibrium constant for the complex coming apart. A low value points to tighter binding. In the case of B1, the Kd in the assay with AHDC1 stood at 19.2 µM; with ABR, 12.5 µM; with APC, 12.3 µM; with ZO2, 16 µM.

B2: Scrib PDZ2 (protein)
chain: QRHVACLARSERGLGFSIAGGKGSTPYRAGDAGIFVSRIAEGGAAHRAGTLQVGDRVLSINGVDVTEARHDHAVSLLTAASPTIALLLEREAGGP
For B2, the results for the equilibrium dissociation constant (Kd) in the assay with ABR, with APC and in the assay with ZNF654 were 10.4 µM, 9.5 µM and 32.1 µM, respectively.

B3: Scrib PDZ3 (protein)
chain: PVEEIRLPRAGGPLGLSIVGGSDHSSHPFGVQEPGVFISKVLPRGLAARSGLRVGDRILAVNGQDVRDATHQEAVSALLRPCLELSLLVRRDPAPP
Take B3: the Kd in the assay with AHDC1 is 10.4 µM; in the assay with ABR, 2.9 µM; with APC it was 6.7 µM; with ZO2, 13.7 µM; with ZNF654, 18.3 µM; in the assay with ANKS4B, 28.2 µM.
